This data set is described as follows: self-splicing fitness, log relative to wild type (ln ratio); higher = more splicing; Tetrahymena group I intron in knt gene, E. coli kanamycin selection, DiMSum; sequences stand for … in CUCUCU…GGAGGGAAAAGUUAUCAGGCAUGCACCUGGUAGCUAGUCUUUAAACCAAUAGAUUGCAUCGGUUUAAAAGGCAAGACCGUCAAAUUGCGGGAAAGGGGUCAACAGCCGUUCAGUACCAAGUCUCAGGGGAAACUUUGAGAUGGCCUUGCAAAGGGUAUGGUAAUAAGCUGACGGACAUGGUCCUAACCACGCAGCCAAGUCCUAAGUCAACAGAUCUUCUGUUGAUAUGGAUGCAGUUCACAGACUAAAUGUCGGUCGGGGAAGAUGUAUUCUUCUCAUAAGAUAUAGUCGGACCUCUCCUUAAUGGGAGCUAGCGGAUGAAGUGAUGCAACACUGGAGCCGCUGGGAACUAAUUUGUAUGCGAAAGUAUAUUGAUUAGUUUUGGAGUACUCGUGGUCG
In outline: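 Six replicate transformations of E. coli BL21(DE3) with a pET-22b(+) library were grown overnight at 37°C or 30°C. The library randomised all eight P1ex-region intron nucleotides, the intron lying in the knt kanamycin-resistance gene, and plates were LB agar with or without 25 μg/mL kanamycin plus 100 μg/mL carbenicillin, 50 μM IPTG and 0.2% rhamnose. Pooled colonies were amplicon-sequenced on an Illumina HiSeq 2500, and fitness is the DiMSum error-weighted combination of wild-type-normalised replicate fold changes, kanamycin versus none.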

± gives the uncertainty stated by the source.

With GCCGAGCAAUAUUACGCAUA, the “self-splicing fitness (ln)” value is -3.39 ± 0.22 (30 °C) and -1.41 ± 0.16 (37 °C).

As to UCAGAGCAAUAUUACGUCAC, the “self-splicing fitness (ln)” value (30 °C) is -2.51 ± 0.18.

In the case of ACCUAGCAAUAUUACGGACC, the “self-splicing fitness (ln)” value (30 °C) was -0.548 ± 0.16 and the “self-splicing fitness (ln)” value (37 °C) came to 0.368 ± 0.17.

AUGGAGCAAUAUUACGUAUG: the “self-splicing fitness (ln)” value is, setting by setting: (30 °C) -4.28 ± 0.46; (37 °C) -3.19 ± 0.37.

Take UCCUAGCAAUAUUACGCUAC: the “self-splicing fitness (ln)” value is -2.35 ± 0.15 (30 °C) and -0.883 ± 0.3 (37 °C).

Regarding GCAGAGCAAUAUUACGCAGU, the “self-splicing fitness (ln)” value (30 °C) was -3.61 ± 0.29 and the “self-splicing fitness (ln)” value (37 °C) is -1.86 ± 0.3.

For UUGAAGCAAUAUUACGAAUG, the “self-splicing fitness (ln)” value is, setting by setting: (30 °C) -0.746 ± 0.081; (37 °C) -0.263 ± 0.11.

For GAGCAGCAAUAUUACGCUUG, the “self-splicing fitness (ln)” value runs as follows: (30 °C) -2.4 ± 0.13; (37 °C) -0.209 ± 0.12.

For the sequence AUAGAGCAAUAUUACGGAGC, the “self-splicing fitness (ln)” value (37 °C) is -2.05 ± 0.38.

On to ACCUAGCAAUAUUACGUUAC, for which the “self-splicing fitness (ln)” value is -3.6 ± 0.21 (30 °C) and -3.13 ± 0.23 (37 °C).

Regarding GUAGAGCAAUAUUACGAAGG, the “self-splicing fitness (ln)” value (30 °C) was -1.87 ± 0.31.

As to CGGGAGCAAUAUUACGUAGA, the “self-splicing fitness (ln)” value was -3.97 ± 0.47 (30 °C) and -1.96 ± 0.26 (37 °C).

As for UCAUAGCAAUAUUACGUGCA, the “self-splicing fitness (ln)” value runs as follows: (30 °C) -1.06 ± 0.082; (37 °C) 0.377 ± 0.092.

UUGCAGCAAUAUUACGUUAU: the “self-splicing fitness (ln)” value (30 °C) was -3.03 ± 0.22 and the “self-splicing fitness (ln)” value (37 °C) was -2.6 ± 0.21.

Turning to CGUUAGCAAUAUUACGAUCU, the “self-splicing fitness (ln)” value was -1.14 ± 0.091 (30 °C) and -0.132 ± 0.12 (37 °C).

Turning to GGUCAGCAAUAUUACGUAGU, the “self-splicing fitness (ln)” value is -0.367 ± 0.064 (30 °C) and 0.693 ± 0.075 (37 °C).

Consider GCGAAGCAAUAUUACGUCUG, for which the “self-splicing fitness (ln)” value is -1.68 ± 0.088 (30 °C) and -1.81 ± 0.15 (37 °C).

As for UUACAGCAAUAUUACGCACA, the “self-splicing fitness (ln)” value runs as follows: (30 °C) -0.783 ± 0.12; (37 °C) 0.168 ± 0.12.

GCGUAGCAAUAUUACGCUGU: the “self-splicing fitness (ln)” value (30 °C) was -3.16 ± 0.28.

For AGCGAGCAAUAUUACGGCUA, the “self-splicing fitness (ln)” value was -0.634 ± 0.19 (30 °C) and -0.479 ± 0.13 (37 °C).

For the sequence GUACAGCAAUAUUACGACCG, the “self-splicing fitness (ln)” value (30 °C) is -2.47 ± 0.19 and the “self-splicing fitness (ln)” value (37 °C) was -0.419 ± 0.14.

For the sequence UGAUAGCAAUAUUACGGAAC, the “self-splicing fitness (ln)” value (37 °C) is -1.21 ± 0.42.

As for GCAAAGCAAUAUUACGUAUG, the “self-splicing fitness (ln)” value reads like this: (30 °C) -2.9 ± 0.11; (37 °C) -2.71 ± 0.2.

Turning to AUGAAGCAAUAUUACGUAGC, the “self-splicing fitness (ln)” value reads like this: (30 °C) -4.32 ± 0.42; (37 °C) -1.45 ± 0.27.

As to CUUUAGCAAUAUUACGCCCU, the “self-splicing fitness (ln)” value (30 °C) was -3.13 ± 0.38 and the “self-splicing fitness (ln)” value (37 °C) is -3.23 ± 0.25.

With AACGAGCAAUAUUACGGGUU, the “self-splicing fitness (ln)” value runs as follows: (30 °C) -2.17 ± 0.18; (37 °C) -2.05 ± 0.22.

On to UAUCAGCAAUAUUACGAGGG, for which the “self-splicing fitness (ln)” value is, setting by setting: (30 °C) -2.76 ± 0.18; (37 °C) -1.61 ± 0.19.

As for UAGUAGCAAUAUUACGUCUA, the “self-splicing fitness (ln)” value runs as follows: (30 °C) 0.265 ± 0.095; (37 °C) 0.659 ± 0.1.

Consider UGACAGCAAUAUUACGACUC, for which the “self-splicing fitness (ln)” value was -2.23 ± 0.17 (30 °C) and -0.483 ± 0.17 (37 °C).

Take AUCUAGCAAUAUUACGCCGU: the “self-splicing fitness (ln)” value was -0.173 ± 0.089 (30 °C) and -0.324 ± 0.1 (37 °C).

With GUGGAGCAAUAUUACGACCA, where the note is “37 °C”, the “self-splicing fitness (ln)” value was -1.24 ± 0.35.

As for UGUCAGCAAUAUUACGGUCC, the “self-splicing fitness (ln)” value reads like this: (30 °C) -0.381 ± 0.15; (37 °C) -0.567 ± 0.19.

As to AGGAAGCAAUAUUACGGAGC, the “self-splicing fitness (ln)” value (30 °C) was -2.78 ± 0.21 and the “self-splicing fitness (ln)” value (37 °C) was -1.61 ± 0.3.

With ACAGAGCAAUAUUACGUAGG, the “self-splicing fitness (ln)” value is -3.59 ± 0.14 (30 °C) and -1.61 ± 0.13 (37 °C).

As to AGUCAGCAAUAUUACGGACG, the “self-splicing fitness (ln)” value (30 °C) was -0.173 ± 0.07 and the “self-splicing fitness (ln)” value (37 °C) worked out at 0.0506 ± 0.1.

Take ACGAAGCAAUAUUACGUUCU: the “self-splicing fitness (ln)” value is -1.24 ± 0.07 (30 °C) and -0.898 ± 0.081 (37 °C).

For ACAGAGCAAUAUUACGAGUA, the “self-splicing fitness (ln)” value (37 °C) was -2.34 ± 0.27.

UUGCAGCAAUAUUACGAGCA: the “self-splicing fitness (ln)” value is -2.35 ± 0.17 (30 °C) and -0.7 ± 0.11 (37 °C).

As for UAGCAGCAAUAUUACGUAUU, the “self-splicing fitness (ln)” value is, setting by setting: (30 °C) -3.99 ± 0.26; (37 °C) -1.54 ± 0.19.

As to GGCUAGCAAUAUUACGCGUG, the “self-splicing fitness (ln)” value reads like this: (30 °C) -0.672 ± 0.071; (37 °C) -1.13 ± 0.083.

On to CAUCAGCAAUAUUACGGCUG, for which the “self-splicing fitness (ln)” value by setting is: (30 °C) -1.76 ± 0.11; (37 °C) -0.0705 ± 0.16.

Consider GACGAGCAAUAUUACGUGCA, for which the “self-splicing fitness (ln)” value is -3.06 ± 0.17 (30 °C) and -0.901 ± 0.16 (37 °C).

As for AGAAAGCAAUAUUACGUGAC, the “self-splicing fitness (ln)” value was -2.53 ± 0.32 (30 °C) and -1.65 ± 0.24 (37 °C).

As to GACUAGCAAUAUUACGACGU, the “self-splicing fitness (ln)” value was -0.558 ± 0.085 (30 °C) and 0.328 ± 0.099 (37 °C).

For the sequence AAUCAGCAAUAUUACGACAA, the “self-splicing fitness (ln)” value reads like this: (30 °C) -0.758 ± 0.12; (37 °C) 0.189 ± 0.14.

As to AUGUAGCAAUAUUACGGUUC, the “self-splicing fitness (ln)” value (30 °C) is -1.72 ± 0.099 and the “self-splicing fitness (ln)” value (37 °C) is -1.29 ± 0.12.

Turning to UUCUAGCAAUAUUACGGAGU, the “self-splicing fitness (ln)” value was -2.24 ± 0.2 (30 °C) and -2.56 ± 0.26 (37 °C).

GUUCAGCAAUAUUACGUACG: the “self-splicing fitness (ln)” value was -1.32 ± 0.1 (30 °C) and -0.0258 ± 0.11 (37 °C).

On to CGUUAGCAAUAUUACGUAUA, for which the “self-splicing fitness (ln)” value reads like this: (30 °C) -2.85 ± 0.28; (37 °C) -2.49 ± 0.31.

Regarding GCUAAGCAAUAUUACGCUUU, the “self-splicing fitness (ln)” value runs as follows: (30 °C) -3.06 ± 0.15; (37 °C) -1.71 ± 0.15.

For AACAAGCAAUAUUACGUACA, the “self-splicing fitness (ln)” value (30 °C) is -1.04 ± 0.095 and the “self-splicing fitness (ln)” value (37 °C) was -0.329 ± 0.11.

Consider GCGGAGCAAUAUUACGGUAA, for which the “self-splicing fitness (ln)” value runs as follows: (30 °C) -3.29 ± 0.26; (37 °C) -2.7 ± 0.31.

Consider UGUCAGCAAUAUUACGGCCG, for which the “self-splicing fitness (ln)” value (30 °C) was -0.69 ± 0.14 and the “self-splicing fitness (ln)” value (37 °C) was -0.658 ± 0.17.

With GAAUAGCAAUAUUACGUUUA, the “self-splicing fitness (ln)” value is -1.79 ± 0.15 (30 °C) and -1.01 ± 0.15 (37 °C).

Take ACCGAGCAAUAUUACGACUG: the “self-splicing fitness (ln)” value is, setting by setting: (30 °C) -2.73 ± 0.17; (37 °C) -1.04 ± 0.16.

In the case of GAUGAGCAAUAUUACGUAAC, the “self-splicing fitness (ln)” value was -1.63 ± 0.12 (30 °C) and -1.9 ± 0.3 (37 °C).

With GUGAAGCAAUAUUACGUCCG, the “self-splicing fitness (ln)” value runs as follows: (30 °C) -0.484 ± 0.15; (37 °C) -0.103 ± 0.17.

Regarding AAGAAGCAAUAUUACGGAAC, the “self-splicing fitness (ln)” value (37 °C) was -2.58 ± 0.45.

With UGGCAGCAAUAUUACGUAGA, the “self-splicing fitness (ln)” value reads like this: (30 °C) -0.926 ± 0.084; (37 °C) -0.264 ± 0.094.

On to CCCUAGCAAUAUUACGACAG, for which the “self-splicing fitness (ln)” value is -2.34 ± 0.13 (30 °C) and -3.3 ± 0.29 (37 °C).

With CGCAAGCAAUAUUACGUGCC, the “self-splicing fitness (ln)” value reads like this: (30 °C) -0.772 ± 0.073; (37 °C) -1.13 ± 0.11.

For GUGGAGCAAUAUUACGUAAU, the “self-splicing fitness (ln)” value is -2.23 ± 0.13 (30 °C) and -0.812 ± 0.13 (37 °C).

Values taken from the supplement of paper PMC7877785.
